These results are taken from paper PMC12748351, “The TDG protein environment connects active DNA demethylation with chromatin and RNA biology”.

The target in this data set is TDG (recombinant murine TDG) (Mus musculus, UniProt P56581 1-421). Description: competition; competes TDG-Sra1 and TDG-Neat1 complexes; higher affinity than lncRNA; BER buffer: 50 mM HEPES pH 8.0, 70 mM KCl, 0.5 mg/mL BSA, 7 mM MgCl2, 1 mM DTT, RNase inhibitor; RT, 15 min (buffer stated for lncRNA EMSA; 60 bp EMSA: 2 µM TDG, 2 µM substrate, RT 15 min). To be noted: protein: recombinant; blunt, one G·U mismatch. For orientation: Mobility shift assays separate free from complexed probe on a gel.
Chain of TDG (recombinant murine TDG) (P56581 whole entry): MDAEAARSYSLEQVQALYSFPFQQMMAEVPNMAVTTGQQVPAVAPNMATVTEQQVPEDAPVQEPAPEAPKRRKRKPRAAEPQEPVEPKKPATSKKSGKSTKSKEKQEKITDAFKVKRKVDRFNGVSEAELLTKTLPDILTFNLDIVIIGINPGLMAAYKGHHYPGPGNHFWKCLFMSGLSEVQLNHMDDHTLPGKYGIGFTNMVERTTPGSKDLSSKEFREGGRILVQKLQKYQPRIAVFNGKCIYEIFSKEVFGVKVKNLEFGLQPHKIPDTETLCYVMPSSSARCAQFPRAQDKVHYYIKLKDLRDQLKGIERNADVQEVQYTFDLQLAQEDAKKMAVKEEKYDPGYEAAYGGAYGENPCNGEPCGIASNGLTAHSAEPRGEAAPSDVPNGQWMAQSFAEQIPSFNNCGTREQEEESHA

B1: Subs60 G·U (unlabeled competitor) (dsDNA)
DNA 1: TAGACATTGCCCTCGAGGTACCATGGATCCGATGTCGACCTCAAACCTAGACGAATTCCG
DNA 2: CGGAATTCGTCTAGGTTTGAGGTUGACATCGGATCCATGGTACCTCGAGGGCAATGTCTA
modifications: dU at position 24 of strand 2
On to B1, for which the binding result is “binds”.
